In PMC3206016, “Putting into Practice Domain-Linear Motif Interaction Predictions for Exploration of Protein Networks” (PLoS ONE, 2011):
Values joined by “and” are separate entries in the source; they are usually repeats but may differ in a detail not shown here. Identical values can stand only once. Ends that are not written are not given here. * marks the point of attachment. Biotin = O=C1N[C@H]2[C@H](CS[C@H]2CCCCC(=O)*)N1

B1: TANC1_10 (long peptide of Tetratricopeptide repeat, ankyrin repeat and coiled-coil domain-containing protein 1: the last ten residues) (peptide)
peptide: Biotin-PKRSFIESNV
notes: also called TANC1 long; source: synthetic peptide (JPT Peptide Technologies)
B2: TAX1_10 (long peptide of the Trans-activating transcriptional regulatory protein of HTLV-1: the last ten residues) (peptide)
peptide: Biotin-SEKHFRETEV
notes: also called TAX1 long; HTLV1 Tax1; source: synthetic peptide (JPT Peptide Technologies)
B3: TTC24_10 (long peptide of Tetratricopeptide repeat protein 24: the last ten residues) (peptide)
peptide: Biotin-PMESGICTIV
notes: also called TTC24 long; source: synthetic peptide (JPT Peptide Technologies)
B4: 16E6 (long peptide of HPV16 early protein E6: the last ten residues) (peptide)
peptide: Biotin-SSRTRRETQL
notes: source: synthetic peptide (JPT Peptide Technologies)

Legend:
Test in all cases: SPR
Settings in all cases: both partners purified
[1] = biological target: T1, SCRIB-34/4 (MBP fusion of the tandem of the third and fourth PDZ domains of SCRIB) (human, UniProt Q14160-1 997-1193)
T1 construct: also called MBP-PDZ analyte SCRIB-34/4; tandem PDZ construct; source: E. coli BL21 DE3, purified (amylose column, Superdex 75 gel filtration)
T1 sequence (looked up): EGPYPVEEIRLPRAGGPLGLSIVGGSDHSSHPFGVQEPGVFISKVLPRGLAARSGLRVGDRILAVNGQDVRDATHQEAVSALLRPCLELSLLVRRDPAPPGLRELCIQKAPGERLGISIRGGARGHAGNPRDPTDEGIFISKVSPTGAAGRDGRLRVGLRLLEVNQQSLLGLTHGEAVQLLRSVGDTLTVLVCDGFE

[2] = biological target: T2, MAGI1-2/6 (MBP fusion of the second of the six PDZ domains of MAGI1) (mouse, UniProt Q6RHR9-1 448-572)
T2 construct: source: E. coli BL21 DE3, purified (amylose column, Superdex 75 gel filtration)

[3] = biological target: T3, SCRIB-3/4 (MBP fusion of the third of the four PDZ domains of SCRIB) (human, UniProt Q14160-1 997-1093)
T3 construct: also called MBP-PDZ analyte SCRIB-3/4; source: E. coli BL21 DE3, purified (amylose column, Superdex 75 gel filtration)
T3 sequence (looked up): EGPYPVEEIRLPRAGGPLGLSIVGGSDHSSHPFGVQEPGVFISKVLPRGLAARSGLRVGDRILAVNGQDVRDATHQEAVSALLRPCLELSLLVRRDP

[4] = biological target: T4, MAGI1-3/6 (MBP fusion of the third of the six PDZ domains of MAGI1) (mouse, UniProt Q6RHR9-1 613-752)
T4 construct: source: E. coli BL21 DE3, purified (amylose column, Superdex 75 gel filtration)

[5] = biological target: T5, SCRIB-4/4 (MBP fusion of the fourth of the four PDZ domains of SCRIB) (human, UniProt Q14160-1 1097-1193)
T5 construct: also called MBP-PDZ analyte SCRIB-4/4; source: E. coli BL21 DE3, purified (amylose column, Superdex 75 gel filtration)
T5 sequence (looked up): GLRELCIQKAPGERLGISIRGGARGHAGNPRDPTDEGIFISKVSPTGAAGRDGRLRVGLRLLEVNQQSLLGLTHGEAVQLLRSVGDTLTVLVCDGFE

[6] = biological target: T1, SCRIB-34/4 (MBP fusion of the tandem of …); remark: listed apart in the source
[7] = biological target: T4, MAGI1-3/6 (MBP fusion of the third of …); remark: listed apart in the source
[8] = biological target: T3, SCRIB-3/4 (MBP fusion of the third of …); remark: listed apart in the source
[9] = biological target: T1, SCRIB-34/4 (MBP fusion of the tandem of …); remark: listed apart in the source
[10] = biological target: T3, SCRIB-3/4 (MBP fusion of the third of …); remark: listed apart in the source

T2 sequence (Q6RHR9 448-572): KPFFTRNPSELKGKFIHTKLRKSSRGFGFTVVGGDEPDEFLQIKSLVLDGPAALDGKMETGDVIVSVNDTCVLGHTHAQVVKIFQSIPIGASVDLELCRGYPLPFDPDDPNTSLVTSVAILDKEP
T4 sequence (Q6RHR9 613-752): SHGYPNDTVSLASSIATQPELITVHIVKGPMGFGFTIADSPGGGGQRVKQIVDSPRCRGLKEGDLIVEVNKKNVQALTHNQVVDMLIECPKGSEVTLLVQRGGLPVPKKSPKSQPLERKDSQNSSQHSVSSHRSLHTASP

| Binder | Kd [1] [µM] | Kd [2] | Kd [3] [µM] | Kd [4] [µM] | Kd [5] [µM] | Kd [6] [µM] | Kd [7] [µM] | Kd [8] [µM] | Kd [9] [µM] | Kd [10] [µM] |
| --- | --- | --- | --- | --- | --- | --- | --- | --- | --- | --- |
| B1 | 2 | 287 µM | 39 |  |  |  |  |  |  |  |
| B2 |  | 53 µM | 29 | 1230 | 48 |  |  |  |  |  |
| B3 |  |  |  |  |  | 49 | 37 | 117 |  |  |
| B4 | 3 | 3 µM and 9 µM | 18 |  |  |  |  |  | 3 | 15 |
